# Reference: US20140045211
# B1: Usp2-cc (catalytic core of the mouse deubiquitylating enzyme Usp2) (protein)
# chain: SKSAQGLAGLRNLGNTCFMNSILQCLSNTRELRDYCLQRLYMRDLGHTSSAHTALMEEFAKLIQTIWTSSPNDVVSPSEFKTQIQRYAPRFMGYNQQDAQEFLRFLLDGLHNEVNRVAARPKASPETLDHLPDEEKGRQMWRKYLEREDSRIGDLFVGQLKSSLTCTDCGYCSTVFDPFWDLSLPIAKRGYPEVTLMDCMRLFTKEDILDGDEKPTCCRCRARKRCIKKFSVQRFPKILVLHLKRFSESRIRTSKLTTFVNFPLRDLDLREFASENTNHAVYNLYAVSNHSGTTMGGHYTAYCRSPVTGEWHTFNDSSVTPMSSSQVRTSDAYLLFYELASPPSRM
# Experiments:
# [1] = molecular target: 2D6 ubiquitin-CCL7 fusion
# [2] = molecular target: 3D3 ubiquitin-CCL7 fusion (ubiquitin I3L, V17L, I23V)
protein,measurement,setting,value
B1,Usp2-cc cleavage time course (SDS-PAGE),[1],"the 2D6 fusion (2D6-CCL7) was only partially cleavable, with large amounts of fusion remaining uncleaved after 12 hr"
same,Usp2-cc cleavage time course (SDS-PAGE),[2],3D3 ubiquitin (3D3-CCL7) was recognized and cleaved with efficiency similar to that observed for wildtype ubiquitin (WT-CCL7)
